In data set [1] the test system is HeLa Kyoto. Briefly: solubility in G1/S (NP-40 vs SDS abundance) (log2 ratio); higher = more soluble. As to conditions: cell cycle stage: G1/S.
Data set [2] concerns HeLa Kyoto. The data set can be described thus: melting temperature (median over replicates), in situ; higher = more thermally stable.
For data set [3], the system named is HeLa Kyoto. The data set can be described thus: solubility change mitosis vs G1/S (difference of NP-40 vs SDS log2 ratios) (log2 ratio difference); higher = more soluble in mitosis.
For data set [4], the system named is HeLa Kyoto. The data set can be described thus: thermal stability score vs G1/S (z-score of summed log2 fold changes over temperatures); higher = more thermally stable than in G1/S.
The mark [5] stands for this setting: cell cycle stage: early G1 (4.5 h after nocodazole release).

This note sets out measurements from the supplement of paper PMC5998384.
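For melting temperature (median over replicates), in situ in this document: HeLa Kyoto cells synchronized by double thymidine or nocodazole block, proteins quantified by TMT10plex mass spectrometry, three independent biological replicates.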
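For solubility change mitosis vs G1/S (difference of NP-40 vs SDS log2 ratios) in this document: synchronized HeLa Kyoto cells (double thymidine block for G1/S, nocodazole release for mitosis), protein amounts in NP-40 versus SDS lysates quantified by mass spectrometry, three biological replicates.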
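For solubility in G1/S (NP-40 vs SDS abundance) in this document: HeLa Kyoto cells arrested at G1/S by double thymidine block, proteins quantified by TMT10plex mass spectrometry in mild NP-40 versus SDS extracts, three biological replicates.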
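For thermal stability score vs G1/S (z-score of summed log2 fold changes over temperatures) in this document: synchronized HeLa Kyoto cells, proteins quantified by TMT10plex mass spectrometry, three biological replicates, mitosis taken 0.5 h after nocodazole release, G1/S directly after double thymidine block.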

For the sequence “MRLREPLLSGSAAMPGASLQRACRLLVAVCALHLGVTLVYYLAGRDLSRLPQLVGVSTPLQGGSNSAAAIGQSSGELRTGGARPPPPLGASSQPRPGGDSSPVVDSGPGPASNLTSVPVPHTTALSLPACPEESPLLVGPMLIEFNMPVDLELVAKQNPNVKMGGRYAPRDCVSPHKVAIIIPFRNRQEHLKYWLYYLHPVLQRQQLDYGIYVINQAGDTIFNRAKLLNVGFQEALKDYDYTCFVFSDVDLIPMNDHNAYRCFSQPRHISVAMDKFGFSLPYVQYFGGVSALSKQQFLTINGFPNNYWGWGGEDDDIFNRLVFRGMSISRPNAVVGRCRMIRHSRDKKNEPNPQRFDRIAHTKETMLSDGLNSLTYQVLDVQRYPLYTQITVDIGTPS [B4GALT1]”, the “solubility in G1/S (log2)” value in the data set on HeLa Kyoto [1] is -0.0686. For the same sequence, the melting temperature in the data set on HeLa Kyoto [2] (cell cycle stage: G1/S) was 53.1 °C; with HeLa Kyoto [2] (cell cycle stage: mitosis), 54 °C. Also, the “solubility change mitosis (log2)” value in the data set with HeLa Kyoto [3] turned out to be 0.0769. The values for the thermal stability score with HeLa Kyoto [4] (setting [5]) and in the data set on HeLa Kyoto [4] (cell cycle stage: mitosis) were -2.25 and -1.74, respectively.
Turning to “MRLRGCGPRAAPASSAGASDARLLAPPGRNPFVHELRLSALQKAQVALMTLTLFPVRLLVAAAMMLLAWPLALVASLGSAEKEPEQPPALWRKVVDFLLKAIMRTMWFAGGFHRVAVKGRQALPTEAAILTLAPHSSYFDAIPVTMTMSSIVMKAESRDIPIWGTLIQYIRPVFVSRSDQDSRRKTVEEIKRRAQSNGKWPQIMIFPEGTCTNRTCLITFKPGAFIPGAPVQPVVLRYPNKLDTITWTWQGPGALEILWLTLCQFHNQVEIEFLPVYSPSEEEKRNPALYASNVRRVMAEALGVSVTDYTFEDCQLALAEGQLRLPADTCLLEFARLVRGLGLKPEKLEKDLDRYSERARMKGGEKIGIAEFAASLEVPVSDLLEDMFSLFDESGSGEVDLRECVVALSVVCRPARTLDTIQLAFKMYGAQEDGSVGEGDLSCILKTALGVAELTVTDLFRAIDQEEKGKITFADFHRFAEMYPAFAEEYLYPDQTHFESCAETSPAPIPNGFCADFSPENSDAGRKPVRKKLD [LPCAT1]”, in the data set with HeLa Kyoto [1], the “solubility in G1/S (log2)” value was -0.209. For the same sequence, the melting temperature in the data set on HeLa Kyoto [2] (cell cycle stage: G1/S) was found to be 52 °C; in the data set with HeLa Kyoto [2] (cell cycle stage: mitosis), 52.6 °C. For the same sequence, in the data set on HeLa Kyoto [3], the “solubility change mitosis (log2)” value was -0.086. The thermal stability score in the data set with HeLa Kyoto [4] (setting [5]) worked out at 2.41; in the data set on HeLa Kyoto [4] (cell cycle stage: mitosis), 3.77.
Consider “MRLSWFRVLTVLSICLSAVATATGAEGKRKLQIGVKKRVDHCPIKSRKGDVLHMHYTGKLEDGTEFDSSLPQNQPFVFSLGTGQVIKGWDQGLLGMCEGEKRKLVIPSELGYGERGAPPKIPGGATLVFEVELLKIERRTEL [FKBP2]”, for which, in the data set with HeLa Kyoto [1], the “solubility in G1/S (log2)” value was 0.262. Moreover, the melting temperature was determined as 53.1 °C in the data set with HeLa Kyoto [2] (cell cycle stage: G1/S) and 54.8 °C in the data set on HeLa Kyoto [2] (cell cycle stage: mitosis). Besides, the “solubility change mitosis (log2)” value in the data set with HeLa Kyoto [3] was -0.0211. The thermal stability score in the data set with HeLa Kyoto [4] (setting [5]) came out at 1.33; in the data set on HeLa Kyoto [4] (cell cycle stage: mitosis), 1.16.
For “MRLTRCQAALAAAITLNLLVLFYVSWLQHQPRNSRARGPRRASAAGPRVTVLVREFEAFDNAVPELVDSFLQQDPAQPVVVAADTLPYPPLALPRIPNVRLALLQPALDRPAAASRPETYVATEFVALVPDGARAEAPGLLERMVEALRAGSARLVAAPVATANPARCLALNVSLREWTARYGAAPAAPRCDALDGDAVVLLRARDLFNLSAPLARPVGTSLFLQTALRGWAVQLLDLTFAAARQPPLATAHARWKAEREGRARRAALLRALGIRLVSWEGGRLEWFGCNKETTRCFGTVVGDTPAYLYEERWTPPCCLRALRETARYVVGVLEAAGVRYWLEGGSLLGAARHGDIIPWDYDVDLGIYLEDVGNCEQLRGAEAGSVVDERGFVWEKAVEGDFFRVQYSESNHLHVDLWPFYPRNGVMTKDTWLDHRQDVEFPEHFLQPLVPLPFAGFVAQAPNNYRRFLELKFGPGVIENPQYPNPALLSLTGSG [FKRP]”, in the data set with HeLa Kyoto [1], the “solubility in G1/S (log2)” value worked out at 0.127. Further, the melting temperature amounted to 54.5 °C with HeLa Kyoto [2] (cell cycle stage: G1/S) and 55.1 °C with HeLa Kyoto [2] (cell cycle stage: mitosis). Further, the “solubility change mitosis (log2)” value in the data set on HeLa Kyoto [3] was 0.00852. Further, the thermal stability score in the data set on HeLa Kyoto [4] (setting [5]) was -1.33; with HeLa Kyoto [4] (cell cycle stage: mitosis), 0.366.
For “MRPGAPGPLWPLPWGALAWAVGFVSSMGSGNPAPGGVCWLQQGQEATCSLVLQTDVTRAECCASGNIDTAWSNLTHPGNKINLLGFLGLVHCLPCKDSCDGVECGPGKACRMLGGRPRCECAPDCSGLPARLQVCGSDGATYRDECELRAARCRGHPDLSVMYRGRCRKSCEHVVCPRPQSCVVDQTGSAHCVVCRAAPCPVPSSPGQELCGNNNVTYISSCHMRQATCFLGRSIGVRHAGSCAGTPEEPPGGESAEEEENFV [FSTL3]”, the “solubility in G1/S (log2)” value in the data set with HeLa Kyoto [1] is -0.141. The melting temperature with HeLa Kyoto [2] (cell cycle stage: G1/S) was found to be 51.7 °C; in the data set with HeLa Kyoto [2] (cell cycle stage: mitosis) it was 54.8 °C. The “solubility change mitosis (log2)” value with HeLa Kyoto [3] was determined as 0.0887. In addition, the thermal stability score in the data set with HeLa Kyoto [4] (setting [5]) came to 2.88; in the data set on HeLa Kyoto [4] (cell cycle stage: mitosis) it was 2.67.
Regarding “MRPGGERPVEGGACNGRSELELLKLRSAECIDEAAERLGALSRAIWSQPELAYEEHHAHRVLTHFFEREPPAASWAVQPHYQLPTAFRAEWEPPEARAPSATPRPLHLGFLCEYDALPGIGHACGHNLIAEVGAAAALGVRGALEGLPRPPPPVKVVVLGTPAEEDGGGKIDLIEAGAFTNLDVVFMAHPSQENAAYLPDMAEHDVTVKYYGKASHSASYPWEGLNALDAAVLAYNNLSVFRQQMKPTWRVHGIIKNGGVKPNIIPSYSELIYYFRAPSMKELQVLTKKAEDCFRAAALASGCTVEIKGGAHDYYNVLPNKSLWKAYMENGRKLGIEFISEDTMLNGPSGSTDFGNVSFVVPGIHPYFHIGSNALNHTEQYTEAAGSQEAQFYTLRTAKALAMTALDVIFKPELLEGIREDFKLKLQEEQFVNAVE [PM20D2]”, the “solubility in G1/S (log2)” value with HeLa Kyoto [1] came out at 0.167. The melting temperature is 52.7 °C with HeLa Kyoto [2] (cell cycle stage: G1/S) and 52.2 °C in the data set on HeLa Kyoto [2] (cell cycle stage: mitosis). Also, the “solubility change mitosis (log2)” value in the data set with HeLa Kyoto [3] came to 0.0574. Besides, the thermal stability score in the data set with HeLa Kyoto [4] (setting [5]) was -0.942; in the data set on HeLa Kyoto [4] (cell cycle stage: mitosis), -1.84.
